From patent US20110166075A1

Target: Mac-1 (CD11b/CD18) integrin receptor on primary mouse microglia (mouse) (UniProt P05555)
Assay: cell-based or functional assay

Chain of Mac-1 (CD11b/CD18) integrin receptor on primary mouse microglia (mouse) (P05555 17-1153, chain 1 of 2): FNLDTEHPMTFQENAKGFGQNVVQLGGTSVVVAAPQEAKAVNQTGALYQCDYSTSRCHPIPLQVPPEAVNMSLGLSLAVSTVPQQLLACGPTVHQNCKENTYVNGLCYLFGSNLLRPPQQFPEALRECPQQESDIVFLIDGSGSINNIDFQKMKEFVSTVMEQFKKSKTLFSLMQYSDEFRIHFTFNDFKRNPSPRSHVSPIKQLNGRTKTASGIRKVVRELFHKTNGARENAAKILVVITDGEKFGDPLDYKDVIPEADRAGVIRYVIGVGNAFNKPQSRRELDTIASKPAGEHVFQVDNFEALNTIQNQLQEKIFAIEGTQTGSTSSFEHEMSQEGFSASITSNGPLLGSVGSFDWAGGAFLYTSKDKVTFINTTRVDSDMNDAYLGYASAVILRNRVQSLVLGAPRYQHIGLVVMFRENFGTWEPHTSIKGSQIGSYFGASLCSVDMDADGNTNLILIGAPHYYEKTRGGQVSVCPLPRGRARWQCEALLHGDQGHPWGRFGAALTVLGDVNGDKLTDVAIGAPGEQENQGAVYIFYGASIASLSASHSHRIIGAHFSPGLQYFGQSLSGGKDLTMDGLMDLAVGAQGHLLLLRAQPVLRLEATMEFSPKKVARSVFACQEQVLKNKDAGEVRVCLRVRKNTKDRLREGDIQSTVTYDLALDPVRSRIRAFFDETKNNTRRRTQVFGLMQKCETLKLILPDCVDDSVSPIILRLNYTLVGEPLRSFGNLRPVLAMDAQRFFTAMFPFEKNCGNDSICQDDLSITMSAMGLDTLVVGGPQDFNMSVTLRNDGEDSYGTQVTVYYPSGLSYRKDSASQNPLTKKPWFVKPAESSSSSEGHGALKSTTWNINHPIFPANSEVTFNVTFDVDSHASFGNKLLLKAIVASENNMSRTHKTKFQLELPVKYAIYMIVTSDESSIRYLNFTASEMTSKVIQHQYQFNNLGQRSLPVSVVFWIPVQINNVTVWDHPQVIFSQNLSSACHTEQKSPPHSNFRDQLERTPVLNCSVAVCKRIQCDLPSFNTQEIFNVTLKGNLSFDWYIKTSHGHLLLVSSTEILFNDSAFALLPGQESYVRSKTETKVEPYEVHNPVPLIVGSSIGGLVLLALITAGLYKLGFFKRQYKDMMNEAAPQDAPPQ
Chain of Mac-1 (CD11b/CD18) integrin receptor on primary mouse microglia (mouse) (P11835 24-771, chain 2 of 2, further chain): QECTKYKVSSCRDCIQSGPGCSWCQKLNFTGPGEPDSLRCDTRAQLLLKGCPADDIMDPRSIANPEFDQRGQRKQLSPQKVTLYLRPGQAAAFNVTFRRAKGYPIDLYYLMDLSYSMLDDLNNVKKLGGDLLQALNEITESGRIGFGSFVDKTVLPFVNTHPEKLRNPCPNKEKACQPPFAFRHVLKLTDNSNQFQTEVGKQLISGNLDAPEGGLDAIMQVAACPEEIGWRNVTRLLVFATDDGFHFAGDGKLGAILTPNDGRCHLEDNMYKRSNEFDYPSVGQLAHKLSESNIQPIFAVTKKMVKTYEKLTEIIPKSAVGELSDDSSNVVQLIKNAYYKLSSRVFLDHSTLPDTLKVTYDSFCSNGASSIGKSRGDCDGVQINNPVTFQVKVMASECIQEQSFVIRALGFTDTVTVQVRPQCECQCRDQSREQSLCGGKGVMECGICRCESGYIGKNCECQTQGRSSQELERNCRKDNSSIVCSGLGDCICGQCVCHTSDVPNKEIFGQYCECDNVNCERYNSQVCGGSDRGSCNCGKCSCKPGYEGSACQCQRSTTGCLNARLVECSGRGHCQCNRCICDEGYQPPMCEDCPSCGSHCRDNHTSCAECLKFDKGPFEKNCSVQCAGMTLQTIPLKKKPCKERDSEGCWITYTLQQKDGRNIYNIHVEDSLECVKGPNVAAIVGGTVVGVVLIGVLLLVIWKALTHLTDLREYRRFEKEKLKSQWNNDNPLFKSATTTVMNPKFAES

Substance	activated microglia (cells larger than 2,000 um^2), fibrinogen in the presence of M1/70 (% of activated microglia)	phagocytosis of fibrinogen-treated microglia [% reduction]	Akt phosphorylation in microglia (Western blot) [fold]	activated microglia (cells larger than 2,000 um^2), fibrinogen treated cells (% of activated microglia)	activated microglia, fibrinogen treatment (% of activated microglia)	active RhoA in microglia (GST-Rhotekin pull-down, Western blot) [fold]
M1/70, rat anti-CD11b neutralizing antibody	18	40				
fibrinogen (Calbiochem), immobilized on tissue culture dishes (ligand)			24	71	71	1.9
